The record followed here is US20260070987A1.

The test concerns the target equine FcRn (large alpha subunit p51) in complex with equine beta-2-microglobulin (equine) (UniProt F6XZ61). Nature of the test: SPR (Biacore), pH 6.

A word on the Kd: it is a measure of binding affinity in units of concentration. High values mean a looser complex, low ones a tighter complex.

Sequence of UniProt F6XZ61 (F6XZ61 entry or part of it, one chain of several): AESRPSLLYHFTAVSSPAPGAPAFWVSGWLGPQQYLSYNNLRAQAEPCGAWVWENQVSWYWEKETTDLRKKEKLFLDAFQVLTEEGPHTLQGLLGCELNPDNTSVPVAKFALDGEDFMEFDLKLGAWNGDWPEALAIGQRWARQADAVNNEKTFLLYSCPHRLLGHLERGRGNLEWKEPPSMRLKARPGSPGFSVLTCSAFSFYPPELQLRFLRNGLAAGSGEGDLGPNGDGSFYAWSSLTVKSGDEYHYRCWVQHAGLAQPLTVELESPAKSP

B1: equine IgG7 T286I mutant (antibody, part only; not given: variable domains, not shown: another chain or arm of the molecule)
constant: ASTTAPKVFPLASHSAATSGSTVALGCLVSSYFPEPVTVSWNSGALTSGVHTFPSVLQSSGLYSLSSMVTVPASSLKSQTYICNVAHPASSTKVDKKIVIKECGGCPTCPECLSVGPSVFIFPPKPKDVLMISRTPTVTCVVVDVGHDFPDVQFNWYVDGVETHIATTEPKQEQNNSTYRVVSILAIQHKDWLSGKEFKCKVNNQALPAPVQKTISKPTGQPREPQVYVLAPHRDELSKNKVSVTCLVKDFYPTDIDIEWKSNGQPEPETKYSTTPAQLDSDGSYFLYSKLTVETNRWQQGTTFTCAVMHEALHNHYTEKSVSKSPGK
Molecule B1 came in with a Kd of 15.8 nM.

B2: equine IgG7 T286L mutant (antibody, part only; not given: Variable domains, not shown: another chain or arm of the molecule)
constant: ASTTAPKVFPLASHSAATSGSTVALGCLVSSYFPEPVTVSWNSGALTSGVHTFPSVLQSSGLYSLSSMVTVPASSLKSQTYICNVAHPASSTKVDKKIVIKECGGCPTCPECLSVGPSVFIFPPKPKDVLMISRTPTVTCVVVDVGHDFPDVQFNWYVDGVETHLATTEPKQEQNNSTYRVVSILAIQHKDWLSGKEFKCKVNNQALPAPVQKTISKPTGQPREPQVYVLAPHRDELSKNKVSVTCLVKDFYPTDIDIEWKSNGQPEPETKYSTTPAQLDSDGSYFLYSKLTVETNRWQQGTTFTCAVMHEALHNHYTEKSVSKSPGK
The molecule B2 returned a Kd of 14 nM.

B3: equine IgG7 T286P mutant (antibody, part only; not given: variable domains, not shown: another chain or arm of the molecule)
constant: ASTTAPKVFPLASHSAATSGSTVALGCLVSSYFPEPVTVSWNSGALTSGVHTFPSVLQSSGLYSLSSMVTVPASSLKSQTYICNVAHPASSTKVDKKIVIKECGGCPTCPECLSVGPSVFIFPPKPKDVLMISRTPTVTCVVVDVGHDFPDVQFNWYVDGVETHPATTEPKQEQNNSTYRVVSILAIQHKDWLSGKEFKCKVNNQALPAPVQKTISKPTGQPREPQVYVLAPHRDELSKNKVSVTCLVKDFYPTDIDIEWKSNGQPEPETKYSTTPAQLDSDGSYFLYSKLTVETNRWQQGTTFTCAVMHEALHNHYTEKSVSKSPGK
B3 displayed a Kd of 6.9 nM.

B4: equine IgG7 T286M mutant (antibody, part only; not given: variable domains, not shown: another chain or arm of the molecule)
constant: ASTTAPKVFPLASHSAATSGSTVALGCLVSSYFPEPVTVSWNSGALTSGVHTFPSVLQSSGLYSLSSMVTVPASSLKSQTYICNVAHPASSTKVDKKIVIKECGGCPTCPECLSVGPSVFIFPPKPKDVLMISRTPTVTCVVVDVGHDFPDVQFNWYVDGVETHMATTEPKQEQNNSTYRVVSILAIQHKDWLSGKEFKCKVNNQALPAPVQKTISKPTGQPREPQVYVLAPHRDELSKNKVSVTCLVKDFYPTDIDIEWKSNGQPEPETKYSTTPAQLDSDGSYFLYSKLTVETNRWQQGTTFTCAVMHEALHNHYTEKSVSKSPGK
B4 had a Kd of 19.3 nM.

B5: equine IgG7 T286S mutant (antibody, part only; not given: variable domains, not shown: another chain or arm of the molecule)
constant: ASTTAPKVFPLASHSAATSGSTVALGCLVSSYFPEPVTVSWNSGALTSGVHTFPSVLQSSGLYSLSSMVTVPASSLKSQTYICNVAHPASSTKVDKKIVIKECGGCPTCPECLSVGPSVFIFPPKPKDVLMISRTPTVTCVVVDVGHDFPDVQFNWYVDGVETHSATTEPKQEQNNSTYRVVSILAIQHKDWLSGKEFKCKVNNQALPAPVQKTISKPTGQPREPQVYVLAPHRDELSKNKVSVTCLVKDFYPTDIDIEWKSNGQPEPETKYSTTPAQLDSDGSYFLYSKLTVETNRWQQGTTFTCAVMHEALHNHYTEKSVSKSPGK
B5 yielded a Kd of 17.1 nM.

B6: equine IgG7 T286Q mutant (antibody, part only; not given: variable domains, not shown: another chain or arm of the molecule)
constant: ASTTAPKVFPLASHSAATSGSTVALGCLVSSYFPEPVTVSWNSGALTSGVHTFPSVLQSSGLYSLSSMVTVPASSLKSQTYICNVAHPASSTKVDKKIVIKECGGCPTCPECLSVGPSVFIFPPKPKDVLMISRTPTVTCVVVDVGHDFPDVQFNWYVDGVETHQATTEPKQEQNNSTYRVVSILAIQHKDWLSGKEFKCKVNNQALPAPVQKTISKPTGQPREPQVYVLAPHRDELSKNKVSVTCLVKDFYPTDIDIEWKSNGQPEPETKYSTTPAQLDSDGSYFLYSKLTVETNRWQQGTTFTCAVMHEALHNHYTEKSVSKSPGK
B6: the Kd was found to be 7.7 nM.

B7: equine IgG7 T286V mutant (antibody, part only; not given: Variable domains, not shown: another chain or arm of the molecule)
constant: ASTTAPKVFPLASHSAATSGSTVALGCLVSSYFPEPVTVSWNSGALTSGVHTFPSVLQSSGLYSLSSMVTVPASSLKSQTYICNVAHPASSTKVDKKIVIKECGGCPTCPECLSVGPSVFIFPPKPKDVLMISRTPTVTCVVVDVGHDFPDVQFNWYVDGVETHVATTEPKQEQNNSTYRVVSILAIQHKDWLSGKEFKCKVNNQALPAPVQKTISKPTGQPREPQVYVLAPHRDELSKNKVSVTCLVKDFYPTDIDIEWKSNGQPEPETKYSTTPAQLDSDGSYFLYSKLTVETNRWQQGTTFTCAVMHEALHNHYTEKSVSKSPGK
As to B7, the Kd turned out to be 2.3 nM.

B8: equine IgG7 T286R mutant (antibody, part only; not given: variable domains, not shown: another chain or arm of the molecule)
constant: ASTTAPKVFPLASHSAATSGSTVALGCLVSSYFPEPVTVSWNSGALTSGVHTFPSVLQSSGLYSLSSMVTVPASSLKSQTYICNVAHPASSTKVDKKIVIKECGGCPTCPECLSVGPSVFIFPPKPKDVLMISRTPTVTCVVVDVGHDFPDVQFNWYVDGVETHRATTEPKQEQNNSTYRVVSILAIQHKDWLSGKEFKCKVNNQALPAPVQKTISKPTGQPREPQVYVLAPHRDELSKNKVSVTCLVKDFYPTDIDIEWKSNGQPEPETKYSTTPAQLDSDGSYFLYSKLTVETNRWQQGTTFTCAVMHEALHNHYTEKSVSKSPGK
With B8, the Kd was determined as 7.8 nM.

B9: equine IgG7 T286K mutant (antibody, part only; not given: variable domains, not shown: another chain or arm of the molecule)
constant: ASTTAPKVFPLASHSAATSGSTVALGCLVSSYFPEPVTVSWNSGALTSGVHTFPSVLQSSGLYSLSSMVTVPASSLKSQTYICNVAHPASSTKVDKKIVIKECGGCPTCPECLSVGPSVFIFPPKPKDVLMISRTPTVTCVVVDVGHDFPDVQFNWYVDGVETHKATTEPKQEQNNSTYRVVSILAIQHKDWLSGKEFKCKVNNQALPAPVQKTISKPTGQPREPQVYVLAPHRDELSKNKVSVTCLVKDFYPTDIDIEWKSNGQPEPETKYSTTPAQLDSDGSYFLYSKLTVETNRWQQGTTFTCAVMHEALHNHYTEKSVSKSPGK
B9 gave a Kd of 20.6 nM.

B10: equine IgG7 T286Y mutant (antibody, part only; not given: Variable domains, not shown: another chain or arm of the molecule)
constant: ASTTAPKVFPLASHSAATSGSTVALGCLVSSYFPEPVTVSWNSGALTSGVHTFPSVLQSSGLYSLSSMVTVPASSLKSQTYICNVAHPASSTKVDKKIVIKECGGCPTCPECLSVGPSVFIFPPKPKDVLMISRTPTVTCVVVDVGHDFPDVQFNWYVDGVETHYATTEPKQEQNNSTYRVVSILAIQHKDWLSGKEFKCKVNNQALPAPVQKTISKPTGQPREPQVYVLAPHRDELSKNKVSVTCLVKDFYPTDIDIEWKSNGQPEPETKYSTTPAQLDSDGSYFLYSKLTVETNRWQQGTTFTCAVMHEALHNHYTEKSVSKSPGK
As to B10, the Kd was 14.9 nM.

B11: equine IgG7 T286W mutant (antibody, part only; not given: variable domains, not shown: another chain or arm of the molecule)
constant: ASTTAPKVFPLASHSAATSGSTVALGCLVSSYFPEPVTVSWNSGALTSGVHTFPSVLQSSGLYSLSSMVTVPASSLKSQTYICNVAHPASSTKVDKKIVIKECGGCPTCPECLSVGPSVFIFPPKPKDVLMISRTPTVTCVVVDVGHDFPDVQFNWYVDGVETHWATTEPKQEQNNSTYRVVSILAIQHKDWLSGKEFKCKVNNQALPAPVQKTISKPTGQPREPQVYVLAPHRDELSKNKVSVTCLVKDFYPTDIDIEWKSNGQPEPETKYSTTPAQLDSDGSYFLYSKLTVETNRWQQGTTFTCAVMHEALHNHYTEKSVSKSPGK
In the case of B11, the Kd came to 15.4 nM.
